Test results from US20220119448A1 (ZHEJIANG DOER BIOLOGICS, published 2022).

Legend:
VEGF [1] = molecular target: T1, VEGF (UniProt P15692-4 27-191, limits assumed, biotin-labelled (Sulfo-NHS biotin, molar ratio 2:1) in the BLI assay; unlabelled in the competition ELISA); test: BLI (Octet-QK), biotin-VEGF on SA probe; average of 3 repeats (STD 0.11)
T1 construct: also called biotin-labeled VEGF
Text: (§1) The binding affinities of the fusion proteins were detected using BLI (Bio-layer inteferometry, ForteBio). […] Excess biotin not involved in labeling was removed by dialysis. […] The buffer used in the experiment was PBS (containing 0.1% Tween-20). […] Based on the program settings, the fusion proteins were bound, and then dissociated in PBST solution, to obtain the experimental curves. According to the result analysis software of Octet-QK, local full was used to fit the curves of the experimental results, then kon, kdis and Kd were determined.

VEGF [2] = molecular target: T1, VEGF; test: competition ELISA: inhibition of VEGF binding to plate-coated VEGF Receptor 2 (KDR)
Description: (§2) The plate was then blocked with 1% BSA/TBS and placed at 37° C. for 1 h; 1% BSA/TBS was added to the plate, 200 μL per well, and placed at 37° C. for 2 h.
(§3) Then, the stock solutions were diluted by 3 times to a total of 11 concentrations. […] The KDR-coated ELISA plate was washed twice and pat-dried. The mixture was successively transferred to the ELISA plate and placed at 37° C. for 1 h, then the plate was washed for 6 times. […] The plate was placed at 37° C. for 1 h and washed for 6 times. Then, goat anti-rat secondary antibody (Pierce, 31432, QA1969921) diluted at 1:1000 was added, 50 μL per well. The plate was placed at 37° C. for 1 h and washed for 6 times. Color developing solution was added after reaction, and the plated was incubated at 37° C. for 15 min. Stop buffer was added to terminate the color reaction. OD450 values were read on a microplate reader.

VEGF [3] = molecular target: T1, VEGF; test: competition ELISA: sample pre-mixed with VEGF, mixture put on a plate coated with VEGF Receptor 2 (KDR), bound VEGF detected with mouse anti-human VEGF antibody, OD450; blocked ligand-receptor pair VEGF/KDR
Description: as §2, §3

VEGF [4] = molecular target: T1, VEGF; test: BLI (Octet-QK), biotin-VEGF on SA probe; repeat 2
Text: as §1

VEGF [5] = molecular target: T1, VEGF; test: BLI (Octet-QK), biotin-VEGF on SA probe; repeat 3
Text: as §1

VEGF [6] = molecular target: T1, VEGF; test: BLI (Octet-QK), biotin-VEGF on SA probe; repeat 1
Text: as §1

T1 sequence (P15692 other isoform, or with tags, fused parts or gaps limits assumed): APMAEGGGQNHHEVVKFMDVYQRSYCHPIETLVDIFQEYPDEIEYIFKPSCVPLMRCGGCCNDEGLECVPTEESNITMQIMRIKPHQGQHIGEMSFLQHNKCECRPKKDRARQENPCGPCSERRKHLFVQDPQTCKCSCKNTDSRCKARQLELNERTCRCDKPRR

B1: PU98x43-ARVEGF (designed binder)
chain: AEPAAPAPAEPAAPAPEAPAAEPAAPAPAEPAAPAPEAPAAEPAAPAPAEPAAPAPEAPAAEPAAPAPAEPAAPAPEAPAAEPAAPAPAEPAAPAPEAPAAEPAAPAPAEPAAPAPEAPAAEPAAPAPAEPAAPAPEAPAAEPAAPAPAEPAAPAPEAPAAEPAAPAPAEPAAPAPEAPAAEPAAPAPAEPAAPAPEAPAAEPAAPAPAEPAAPAPEAPAAEPAAPAPAEPAAPAPEAPAAEPAAPAPAEPAAPAPEAPAAEPAAPAPAEPAAPAPEAPAAEPAAPAPAEPAAPAPEAPAAEPAAPAPAEPAAPAPEAPAAEPAAPAPAEPAAPAPEAPAAEPAAPAPAEPAAPAPEAPAAEPAAPAPAEPAAPAPEAPAAEPAAPAPAEPAAPAPEAPAAEPAAPAPAEPAAPAPEAPAAEPAAPAPAEPAAPAPEAPAAEPAAPAPAEPAAPAPEAPAAEPAAPAPAEPAAPAPEAPAAEPAAPAPAEPAAPAPEAPAAEPAAPAPAEPAAPAPEAPAAEPAAPAPAEPAAPAPEAPAAEPAAPAPAEPAAPAPEAPAAEPAAPAPAEPAAPAPEAPAAEPAAPAPAEPAAPAPEAPAAEPAAPAPAEPAAPAPEAPAAEPAAPAPAEPAAPAPEAPAAEPAAPAPAEPAAPAPEAPAAEPAAPAPAEPAAPAPEAPAAEPAAPAPAEPAAPAPEAPAAEPAAPAPAEPAAPAPEAPAAEPAAPAPAEPAAPAPEAPAAEPAAPAPAEPAAPAPEAPAAEPAAPAPAEPAAPAPEAPAAEPAAPAPAEPAAPAPEAPAAEPAAPAPAEPAAPAPEAPAAEPAAPAPAEPAAPAPEAPAAEPAAPAPAEPAAPAPEAPAGSDLDKKLLEAARAGQDDEVRILMANGADVNARDSTGWTPLHLAAPWGHPEIVEVLLKNGADVNAADFQGWTPLHLAAAVGHLEIVEVLLKYGADVNAQDKFGKTAFDISIDNGNEDLAEILQKAA
notes: also called PU-ARVEGF fusion protein
Kd (VEGF [1]): 0.51 nM
IC50 (VEGF [2]): 0.51 nM
IC50 (read off the curve) (VEGF [3]): ~0.3 nM
Kd (VEGF [4]): 0.49 nM
Kd (VEGF [5]): 0.42 nM
Kd (VEGF [6]): 0.63 nM
